Assay results taken from doi:10.1101/2022.10.13.511954 (bioRxiv, 2022).
Where two headings read alike, the source gives them in different places.

How the values were obtained:
[1] = molecular target: T1, (MBP)2-WRC, human WAVE regulatory complex (human, UniProt Q7L576 1-1253; Q9Y2A7 1-1128; Q92558 1-178; Q9NYB9 1-158; Q8WUW1 1-75); test: pull-down
[2] = molecular target: T1, (MBP)2-WRC, human WAVE regulatory …; test: pull-down; remark: listed apart in the source

binding result [1] | binding result [2] | Binder
binds | – | GST-tagged cytoplasmic domain of DCC (GST-DCC^cyto) (domain or fragment, human, UniProt P43146 1123-1447, looked up) RRSSAQQRKKRATHSAGKRKGSQKDLRPPDLWIHHEEMEMKNIEKPSGTDPAGRDSPIQSCQDLTPVSHSQSETQLGSKSTSHSGQDTEEAGSSMSTLERSLAARRAPRAKLMIPMDAQSNNPAVVSAIPVPTLESAQYPGILPSPTCGYPHPQFTLRPVPFPTLSVDRGFGAGRSQSVSEGPTTQQPPMLPPSQPEHSSSEEAPSRTIPTACVRPTHPLRSFANPLLPPPMSAIEPKVPYTPLLSQPGPTLPKTHVKTASLGLAGKARSPLLPVSVPTAPEVSEESHKPTEDSANVYEQDDLSEQMASLEGLMKQLNAITGSAF
– | binds | GST-DCC^ΔWIRS-cyto (domain or fragment, human, UniProt P43146 1123-1447, looked up) RRSSAQQRKKRATHSAGKRKGSQKDLRPPDLWIHHEEMEMKNIEKPSGTDPAGRDSPIQSCQDLTPVSHSQSETQLGSKSTSHSGQDTEEAGSSMSTLERSLAARRAPRAKLMIPMDAQSNNPAVVSAIPVPTLESAQYPGILPSPTCGYPHPQFTLRPVPFPTLSVDRGFGAGRSQSVSEGPTTQQPPMLPPSQPEHSSSEEAPSRTIPTACVRPTHPLRAAANPLLPPPMSAIEPKVPYTPLLSQPGPTLPKTHVKTASLGLAGKARSPLLPVSVPTAPEVSEESHKPTEDSANVYEQDDLSEQMASLEGLMKQLNAITGSAF
– | binds | GST-DCC^R1343H-cyto (domain or fragment, human, UniProt P43146 1123-1447, looked up) RRSSAQQRKKRATHSAGKRKGSQKDLRPPDLWIHHEEMEMKNIEKPSGTDPAGRDSPIQSCQDLTPVSHSQSETQLGSKSTSHSGQDTEEAGSSMSTLERSLAARRAPRAKLMIPMDAQSNNPAVVSAIPVPTLESAQYPGILPSPTCGYPHPQFTLRPVPFPTLSVDRGFGAGRSQSVSEGPTTQQPPMLPPSQPEHSSSEEAPSRTIPTACVRPTHPLHSFANPLLPPPMSAIEPKVPYTPLLSQPGPTLPKTHVKTASLGLAGKARSPLLPVSVPTAPEVSEESHKPTEDSANVYEQDDLSEQMASLEGLMKQLNAITGSAF
